Measurements reported in US20130040894A1, “INHIBITION OR ACTIVATION OF SERINE/THREONINE ULK3 KINASE ACTIVITY” (TALLINN UNIVERSITY OF TECHNOLOGY, priority 2009, published 2013).

B1: ULK3: human serine/threonine kinase, 472 amino acids (SEQ ID NO: 1), overexpressed from cloned cDNA or immunopurified FLAG-tagged (protein, listed as Homo sapiens)
chain: MAGPGWGPPRLDGFILTERLGSGTYATVYKAYAKKDTREVVAIKCVAKKSLNKASVENLLTEIEILKGIRHPHIVQLKDFQWDSDNIYLIMEFCAGGDLSRFIHTRRILPEKVARVFMQQLASALQFLHERNISHLDLKPQNILLSSLEKPHLKLADFGFAQHMSPWDEKHVLRGSPLYMAPEMVCQRQYDARVDLWSMGVILYEALFGQPPFASRSFSELEEKIRSNRVIELPLRPLLSRDCRDLLQRLLERDPSRRISFQDFFAHPWVDLEHMPSGESLGRATALVVQAVKKDQEGDSAAALSLYCKALDFFVPALHYEVDAQRKEAIKAKVGQYVSRAEELKAIVSSSNQALLRQGTSARDLLREMARDKPRLLAALEVASAAMAKEEAAGGEQDALDLYQHSLGELLLLLAAEPPGRRRELLHTEVQNLMARAEYLKEQVKMRESRWEADTLDKEGLSESVRSSCTLQ
modifications: PEPTIDE (1)..(472) ULK3
B2: ULK3(K139R): kinase-deficient ULK3 mutant with Lysine at position 139 mutated to Arginine (SEQ ID NO:7) (protein)
chain: MAGPGWGPPRLDGFILTERLGSGTYATVYKAYAKKDTREVVAIKCVAKKSLNKASVENLLTEIEILKGIRHPHIVQLKDFQWDSDNIYLIMEFCAGGDLSRFIHTRRILPEKVARVFMQQLASALQFLHERNISHLDLRPQNILLSSLEKPHLKLADFGFAQHMSPWDEKHVLRGSPLYMAPEMVCQRQYDARVDLWSMGVILYEALFGQPPFASRSFSELEEKIRSNRVIELPLRPLLSRDCRDLLQRLLERDPSRRISFQDFFAHPWVDLEHMPSGESLGRATALVVQAVKKDQEGDSAAALSLYCKALDFFVPALHYEVDAQRKEAIKAKVGQYVSRAEELKAIVSSSNQALLRQGTSARDLLREMARDKPRLLAALEVASAAMAKEEAAGGEQDALDLYQHSLGELLLLLAAEPPGRRRELLHTEVQNLMARAEYLKEQVKMRESRWEADTLDKEGLSESVRSSCTLQ
modifications: MUTAGEN (1)..(472) mutated ULK3 protein ULK3 (K139R)

What was measured:
[1] = system: GLI-dependent firefly luciferase activity in Shh-LIGHT2 cells; test: GLI-dependent luciferase assay in Shh-L2 cells; type: cell-based, mouse; details: for enhancement of transcriptional activity of overexpressed GLI1: cotransfected with GLI1, Shh-L2 cells; for enhancement of transcriptional activity of overexpressed GLI2: cotransfected with GLI2, Shh-L2 cells
Procedure: Cells were transfected by the expression constructs or respective empty vectors using Polyethylenimine transfection agent (PEI) (Inbio) and as described in [28]. We used 0.25 μg of cDNA per 1 cm^2 of plate surface area for transfections. After 3 h of transfection HEK293, NIH3T3 and Cos1 cells were propagated in the normal growth medium for 48 h. Prior the further analysis the cells were washed twice with PBS. Post-transfectional Shh-L2 cells were grown in the normal growth medium for 24 h and for additional 24 h in the Light medium containing 0.25% FBS, washed once with PBS, lysed in Passive Lysis Buffer (Promega, Madison Wis., USA) (70 ul per well of 24-well plate format) and subjected to luciferase assay.
Luciferase assay was performed as previously described. Briefly, firefly luciferase activity of 12 μl of the Shh-L2 cells lysate was measured using Luciferase Assay Kit (Promega) and galactosidase activity was quantified using Galacto-LightPlus kit (Tropix, Bedford Mass., USA) according to the manufacturer's instructions. Chemiluminicence was measured using Ascent FL Fluoroscan (Thermo Electron Corporation, Waltham Mass., USA) according to the manufacturer's instructions.
We cotransfected the constructs together with GLI-expressing plasmids (or respective empty vector) into Shh-L2 cells and assessed their effect on GLI-dependent firefly luciferase activity. The obtained data was normalized with β-galactosidase values. […] It was able to stimulate the luciferase activity 3.8 times and enhanced the transcriptional activity of over expressed GLI1 and GLI2 approximately 2 and 3.2 times, respectively. The potency of STK36 in the assay was much lower.
In order to examine if the kinase activity of ULK3 is required for the luciferase reporter activation we tested the supposed kinase-deficient variants of ULK3, ULK3(K44R) and ULK3(K139R) in the same assay. […] We also tested the effect of ULK3 and the mutants on the luciferase reporter when the SHH pathway was activated by cotransfection with pShhN (plasmid expressing biologically active part of SHH).

[2] = system: GLI1GFP localization in NIH3T3 cells; test: Immunofluorescence assay, subcellular localization of GFP-tagged GLI1; type: cell-based, mouse; details: coexpressed with GLI1GFP in NIH3T3 cells
Procedure: (§1) NIH3T3 cells were transfected with GLI1GFP and FLAG-tagged expression constructs for ULK3 or ULK3(K139R) in ratio 1:1 on 8-chamber slides (Falcon, BD Biosciences, San Jose Calif., USA). The cells were fixed with 4% paraformaldehyde and washed three times for 5 min with Stain Wash Medium (SWM) (0.5% BSA and 0.01% NaN3 in PBS). Subsequent permeabilization of cells was performed at RT by 10-min incubation in. PBS supplemented with 0.5% Triton X-100. Afterwards, the cells were washed three times for 5 min with SWM, blocked for 30 min in PBS containing 5% bovine serum albumin (BSA), and incubated with mouse monoclonal M2-anti-FLAG antibody (diluted 1:1000 in SWM) for 1 h at RT with gentle agitation. After three washes of 10 min with SWM, the cells were incubated for 30 min with secondary antibody Alexa-Fluor 568 (Invitrogen) (diluted 1:500 in SWM) mixed with nuclear stain Hoechst 33342 (diluted 1:100). Cells were washed twice with SWM and mounted with Mowiol 4-88 (Sigma-Aldrich). GLI1GFP protein localization was assessed in at least 200 FLAG-positive cells under a fluorescent microscope Olympus BX61 with UPLan SApo 40× objective, and the experiment was repeated three times. Confocal images were obtained with a Zeiss LSM-510 META confocal laser-scanning microscope (Carl Zeiss MicroImaging GmbH, Germany) equipped with Plan-Apochromat 63×/1.4 oil immersion objective.
Next we examined if overexpression of ULK3 kinase influences the subcellular localization of GLI1 and GLI2 proteins. […] FLAG-tagged ULK3 and ULK3(K139R) (or respective empty vector) were coexpressed with GFP-tagged GLI1 and GLI2 in NIH3T3 cells. Subcellular localization of GLI1 and GLI2 was determined, and average values were calculated from three independent experiments. ULK3 and its mutant remained almost completely cytoplasmic. GFP-tagged GLI2 localized predominantly in the nucleus and its localization was not altered by ULK3 or ULK3(K139R) (data not shown). Overexpressed GLI1GFP was detected both in cytoplasm and nucleus (FIG. 3A). […] Under the influence of ULK3 localization of GLI1 was shifted.

[3] = system: GFP-tagged GLI2 localization in NIH3T3 cells; test: Immunofluorescence assay, subcellular localization of GFP-tagged GLI2; type: cell-based, mouse; details: coexpressed with GFP-tagged GLI2 in NIH3T3 cells
Procedure: as §1, with “After three washes of 10 min with SWM, the cells were incubated for 30 min with secondary antibody Alexa-Fluor 568 (Invitrogen) (diluted 1:500 in SWM) mixed with nuclear stain Hoechst 33342 (diluted 1:100). Cells were washed twice with SWM and mounted with Mowiol 4-88 (Sigma-Aldrich).” left out, “Confocal images were obtained with a Zeiss LSM-510 META confocal laser-scanning microscope (Carl Zeiss MicroImaging GmbH, Germany) equipped with Plan-Apochromat 63×/1.4 oil immersion objective.” left out
Next we examined if overexpression of ULK3 kinase influences the subcellular localization of GLI1 and GLI2 proteins. […] Subcellular localization of GLI1 and GLI2 was determined, and average values were calculated from three independent experiments. […] Overexpressed GLI1GFP was detected both in cytoplasm and nucleus (FIG. 3A). […]

[4] = system: GLI1 mRNA expression in HEK293 cells; test: Quantitative RT-PCR of endogenous GLI1 mRNA expression; type: cell-based, human; details: normalized by HPRT; for induction of endogenous GLI1 expression: 72 h; for endogenous GLI1 expression level relative to empty vector: FIG. 5B
Procedure: HEK293 cells were transfected with FLAG-tagged wt ULK3, ULK3(K139R) or respective empty vector in two replicates. After 5 h of incubation one replicate of cells transfected with the vector was induced by SHHC24II. The cells were incubated 24 h and 72 h, washed with PBS. Total RNA was isolated and treated with DNaseI using RNAqueous kit (Ambion) according to manufacture's instructions. cDNA of 2 μg total RNA was synthesised using SuperScript III kit (Ambion). Levels of GLI1 mRNA and mRNA of housekeeping gene HPRT used for normalization were detected in triplicates by quantitative Real-Time PCR. The following GLI1 primers were used for the assay: […]
HEK293 cells were transfected by ULK3 or respective empty vector. Cells transfected with empty vector were induced by 12 nM of SHHC24II and were used as a posititve control. Cells were incubated 24 h and 72 h, and total RNA was isolated. Level of GLI1 expression was measured using QRT-PCR procedure and the obtained data was normalized by expression of housekeeping gene HPRT. Level of GLI1 expression in cells transfected with empty vector was taken as 1.

Row | Molecule | enhancement of transcriptional activity of overexpressed GLI1 [1] | enhancement of transcriptional activity of overexpressed GLI2 [1] | induction of luciferase activity with activated SHH pathway ([1]; cotransfection with pShhN, Shh-L2 cells) | stimulation of GLI-dependent luciferase activity ([1]; kinase construct alone, Shh-L2 cells, normalized with β-galactosidase) [times] | cells that retained GLI1 in the cytoplasm ([2]; average of three experiments) [%] | cells with GLI1 mostly in the nucleus ([2]; average of three experiments) [%] | cells with uniform distribution of GLI1 ([2]; average of three experiments) [%] | influence on GLI2 subcellular localization [3] | induction of endogenous GLI1 expression [4] | endogenous GLI1 expression level relative to empty vector [4] | influence on GLI1 subcellular localization [2]
1 | B1 | approximately 2 times | ~3.2 times | approximately 4.1 times | 3.8 | 2 | 70 | 25 | not altered | able to induce | approximately 6 times | –
2 | B2 | neither of the mutants had an effect | completely inactive | – | – | – | – | – | not altered | failed to activate | failed to activate | did not influence
